{"source": "patent US20060257938A1", "about": "“Method of screening for drugs that block ligand binding to a lipid binding protein” (priority 2005, published 2006)", "molecules": {"B1": {"name": "70M, 72A (protein, listed as Rattus norvegicus)", "chain": "AFDGTWKVDRNENYEKFMEKMGINVVKRKLGAHDNLKLTITQEGNKFTVKESSNFRNIDVVFELGVDFAMSAADGTELTGTWTMEGNKLVGKFKRVDNGKELIAVREISGNELIQTYTYEGVEAKRIFKKE", "modifications": "PEPTIDE (1)...(131) wild-type rat intestinal fatty acid binding protein"}, "B2": {"name": "72D (protein, listed as Rattus norvegicus)", "chain": "B1 chain with M70Y, A72D", "modifications": "PEPTIDE (1)...(131) wild-type rat intestinal fatty acid binding protein"}, "B3": {"name": "72G (protein, listed as Rattus norvegicus)", "chain": "B1 chain with M70Y, A72G", "modifications": "PEPTIDE (1)...(131) wild-type rat intestinal fatty acid binding protein"}, "B4": {"name": "73H, 72A (protein, listed as Rattus norvegicus)", "chain": "B1 chain with M70Y, A73H", "modifications": "PEPTIDE (1)...(131) wild-type rat intestinal fatty acid binding protein"}, "B5": {"name": "73K, 72A (protein, listed as Rattus norvegicus)", "chain": "B1 chain with M70Y, A73K", "modifications": "PEPTIDE (1)...(131) wild-type rat intestinal fatty acid binding protein"}, "B6": {"name": "72V (protein, listed as Rattus norvegicus)", "chain": "B1 chain with M70Y, A72V", "modifications": "PEPTIDE (1)...(131) wild-type rat intestinal fatty acid binding protein"}, "B7": {"name": "72K (protein, listed as Rattus norvegicus)", "chain": "B1 chain with M70Y, A72K", "modifications": "PEPTIDE (1)...(131) wild-type rat intestinal fatty acid binding protein"}, "B8": {"name": "72E (protein, listed as Rattus norvegicus)", "chain": "B1 chain with M70Y, A72E", "modifications": "PEPTIDE (1)...(131) wild-type rat intestinal fatty acid binding protein"}, "B9": {"name": "73E, 72A (protein, listed as Rattus norvegicus)", "chain": "B1 chain with M70Y, A73E", "modifications": "PEPTIDE (1)...(131) wild-type rat intestinal fatty acid binding protein"}, "B10": {"name": "72R (protein, listed as Rattus norvegicus)", "chain": "B1 chain with M70Y, A72R", "modifications": "PEPTIDE (1)...(131) wild-type rat intestinal fatty acid binding protein"}, "B11": {"name": "72Q (protein, listed as Rattus norvegicus)", "chain": "B1 chain with M70Y, A72Q", "modifications": "PEPTIDE (1)...(131) wild-type rat intestinal fatty acid binding protein"}, "B12": {"name": "104F3, 72A (protein, listed as Rattus norvegicus)", "chain": "B1 chain with M70Y, A104F", "modifications": "PEPTIDE (1)...(131) wild-type rat intestinal fatty acid binding protein"}, "B13": {"name": "72M (protein, listed as Rattus norvegicus)", "chain": "B1 chain with M70Y, A72M", "modifications": "PEPTIDE (1)...(131) wild-type rat intestinal fatty acid binding protein"}, "B14": {"name": "72C (protein, listed as Rattus norvegicus)", "chain": "B1 chain with M70Y, A72C", "modifications": "PEPTIDE (1)...(131) wild-type rat intestinal fatty acid binding protein"}, "B15": {"name": "72S (protein, listed as Rattus norvegicus)", "chain": "B1 chain with M70Y, A72S", "modifications": "PEPTIDE (1)...(131) wild-type rat intestinal fatty acid binding protein"}, "B16": {"name": "104F1, 72A (protein, listed as Rattus norvegicus)", "chain": "B1 chain with M70Y, A104F", "modifications": "PEPTIDE (1)...(131) wild-type rat intestinal fatty acid binding protein"}, "B17": {"name": "72N (protein, listed as Rattus norvegicus)", "chain": "B1 chain with M70Y, A72N", "modifications": "PEPTIDE (1)...(131) wild-type rat intestinal fatty acid binding protein"}, "B18": {"name": "73G, 72A (protein, listed as Rattus norvegicus)", "chain": "B1 chain with M70Y, A73G", "modifications": "PEPTIDE (1)...(131) wild-type rat intestinal fatty acid binding protein"}, "B19": {"name": "72Y (protein, listed as Rattus norvegicus)", "chain": "B1 chain with M70Y, A72Y", "modifications": "PEPTIDE (1)...(131) wild-type rat intestinal fatty acid binding protein"}, "B20": {"name": "73F, 72A (protein, listed as Rattus norvegicus)", "chain": "B1 chain with M70Y, A73F", "modifications": "PEPTIDE (1)...(131) wild-type rat intestinal fatty acid binding protein"}}, "note": "Positions count from the first letter of the chain named. “And” between values parts separate entries of the source, which are not always exact repeats. Identical values can stand only once."}
{"assay": "Probe fluorescence ratio response to linoleic acid relative to ADIFAB2", "type": "binding", "conditions": "response relative to ADIFAB2", "method_in_brief": "(§1)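 Each fatty acid's response was expressed relative to ADIFAB2, the rI-FABP-L72A probe, as ΔR/ΔRreference. ΔR is the change in the background-corrected two-wavelength intensity ratio R=Fλ1/Fλ2 from its analyte-free baseline R0. Emission was read near about 420-480 nm for unbound and about 495-580 nm for FFA-bound probe.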"}
{"molecule": "B1", "DR/DR LA": 0.39}
{"molecule": "B2", "DR/DR LA": 0.37}
{"molecule": "B3", "DR/DR LA": "0.48 and 0.544"}
{"molecule": "B4", "DR/DR LA": 0.18}
{"molecule": "B5", "DR/DR LA": 0.29}
{"molecule": "B6", "DR/DR LA": 0.21}
{"molecule": "B7", "DR/DR LA": 0.26}
{"molecule": "B8", "DR/DR LA": 0.38}
{"molecule": "B9", "DR/DR LA": 0.19}
{"molecule": "B10", "DR/DR LA": 0.51}
{"molecule": "B11", "DR/DR LA": "0.76 and 0.762"}
{"molecule": "B12", "DR/DR LA": 0.50}
{"molecule": "B13", "DR/DR LA": 1.46}
{"molecule": "B14", "DR/DR LA": 0.25}
{"molecule": "B15", "DR/DR LA": 0.73}
{"molecule": "B16", "DR/DR LA": 0.47}
{"molecule": "B17", "DR/DR LA": 0.77}
{"molecule": "B18", "DR/DR LA": 0.56}
{"molecule": "B19", "DR/DR LA": "0.64 and 0.637"}
{"molecule": "B20", "DR/DR LA": "1.23 and 1.234"}
{"assay": "Probe fluorescence ratio response to palmitic acid relative to ADIFAB2", "type": "binding", "conditions": "response relative to ADIFAB2", "method_in_brief": "as §1"}
{"molecule": "B1", "DR/DR PA": 0.26}
{"molecule": "B2", "DR/DR PA": 0.24}
{"molecule": "B3", "DR/DR PA": "0.26 and 0.307"}
{"molecule": "B4", "DR/DR PA": 0.16}
{"molecule": "B5", "DR/DR PA": 0.15}
{"molecule": "B6", "DR/DR PA": 0.16}
{"molecule": "B7", "DR/DR PA": 0.13}
{"molecule": "B8", "DR/DR PA": 0.19}
{"molecule": "B9", "DR/DR PA": 0.13}
{"molecule": "B10", "DR/DR PA": 0.26}
{"molecule": "B11", "DR/DR PA": "0.99 and 0.989"}
{"molecule": "B12", "DR/DR PA": 0.25}
{"molecule": "B13", "DR/DR PA": 1.32}
{"molecule": "B14", "DR/DR PA": 0.12}
{"molecule": "B15", "DR/DR PA": 0.68}
{"molecule": "B16", "DR/DR PA": 0.27}
{"molecule": "B17", "DR/DR PA": "0.44 and 0.441"}
{"molecule": "B18", "DR/DR PA": 0.41}
{"molecule": "B19", "DR/DR PA": "0.41 and 0.415"}
{"molecule": "B20", "DR/DR PA": "1.13 and 1.128"}
{"assay": "Probe fluorescence ratio response to arachidonic acid relative to ADIFAB2", "type": "binding", "conditions": "Arachidonic acid; response relative to ADIFAB2", "method_in_brief": "as §1"}
{"molecule": "B1", "DR/DR AA": 0.34}
{"molecule": "B2", "DR/DR AA": 0.27}
{"molecule": "B3", "DR/DR AA": 0.62}
{"molecule": "B4", "DR/DR AA": 0.15}
{"molecule": "B5", "DR/DR AA": 0.30}
{"molecule": "B6", "DR/DR AA": 0.18}
{"molecule": "B7", "DR/DR AA": 0.26}
{"molecule": "B8", "DR/DR AA": 0.27}
{"molecule": "B9", "DR/DR AA": 0.15}
{"molecule": "B10", "DR/DR AA": 0.45}
{"molecule": "B11", "DR/DR AA": 0.77}
{"molecule": "B13", "DR/DR AA": 1.31}
{"molecule": "B14", "DR/DR AA": 0.14}
{"molecule": "B15", "DR/DR AA": 0.65}
{"molecule": "B17", "DR/DR AA": 0.65}
{"molecule": "B18", "DR/DR AA": 0.46}
{"molecule": "B19", "DR/DR AA": 0.35}
{"molecule": "B20", "DR/DR AA": 1.21}
{"assay": "Probe fluorescence ratio response to arachidonic acid relative to ADIFAB2", "type": "binding", "conditions": "arachidonic acid; response relative to ADIFAB2", "method_in_brief": "as §1"}
{"molecule": "B3", "DR/DR AA": 0.871}
{"molecule": "B11", "DR/DR AA": 0.770}
{"molecule": "B12", "DR/DR AA": 0.71}
{"molecule": "B16", "DR/DR AA": 0.66}
{"molecule": "B17", "DR/DR AA": 0.652}
{"molecule": "B19", "DR/DR AA": 0.346}
{"molecule": "B20", "DR/DR AA": 1.208}
{"assay": "Probe fluorescence ratio response to oleic acid relative to ADIFAB2", "type": "binding", "conditions": "response relative to ADIFAB2", "method_in_brief": "as §1"}
{"molecule": "B1", "DR/DR OA": 0.42}
{"molecule": "B2", "DR/DR OA": 0.28}
{"molecule": "B3", "DR/DR OA": "0.52 and 0.628"}
{"molecule": "B4", "DR/DR OA": 0.13}
{"molecule": "B5", "DR/DR OA": 0.28}
{"molecule": "B6", "DR/DR OA": 0.20}
{"molecule": "B7", "DR/DR OA": 0.19}
{"molecule": "B8", "DR/DR OA": 0.34}
{"molecule": "B9", "DR/DR OA": 0.14}
{"molecule": "B10", "DR/DR OA": 0.45}
{"molecule": "B11", "DR/DR OA": "0.78 and 0.777"}
{"molecule": "B12", "DR/DR OA": 0.47}
{"molecule": "B13", "DR/DR OA": 1.49}
{"molecule": "B14", "DR/DR OA": 0.20}
{"molecule": "B15", "DR/DR OA": 0.62}
{"molecule": "B16", "DR/DR OA": 0.45}
{"molecule": "B17", "DR/DR OA": "0.83 and 0.831"}
{"molecule": "B18", "DR/DR OA": 0.52}
{"molecule": "B19", "DR/DR OA": "0.56 and 0.557"}
{"molecule": "B20", "DR/DR OA": "0.73 and 0.728"}
{"assay": "Probe fluorescence ratio response to linolenic acid relative to ADIFAB2", "type": "binding", "conditions": "response relative to ADIFAB2", "method_in_brief": "as §1"}
{"molecule": "B1", "DR/DR LNA": 0.53}
{"molecule": "B2", "DR/DR LNA": 0.41}
{"molecule": "B3", "DR/DR LNA": "0.48 and 0.590"}
{"molecule": "B4", "DR/DR LNA": 0.25}
{"molecule": "B5", "DR/DR LNA": 0.28}
{"molecule": "B6", "DR/DR LNA": 0.15}
{"molecule": "B7", "DR/DR LNA": 0.31}
{"molecule": "B8", "DR/DR LNA": 0.36}
{"molecule": "B9", "DR/DR LNA": 0.14}
{"molecule": "B10", "DR/DR LNA": 0.49}
{"molecule": "B11", "DR/DR LNA": "0.73 and 0.735"}
{"molecule": "B12", "DR/DR LNA": 0.45}
{"molecule": "B13", "DR/DR LNA": 1.35}
{"molecule": "B14", "DR/DR LNA": 0.17}
{"molecule": "B15", "DR/DR LNA": 0.71}
{"molecule": "B16", "DR/DR LNA": 0.42}
{"molecule": "B17", "DR/DR LNA": "0.70 and 0.702"}
{"molecule": "B18", "DR/DR LNA": 0.53}
{"molecule": "B19", "DR/DR LNA": "0.59 and 0.594"}
{"molecule": "B20", "DR/DR LNA": "1.86 and 1.861"}
